The text below walks through data of patent US20250011363A1, “OPTIMIZED SHORTENED PEPTIDE THAT BINDS TO ACETYLCHOLINE RECEPTOR, AND USE THEREOF” (SKINMED CO., LTD., priority 2021, published 2025).

The assay has as its target acetylcholine receptor (Homo sapiens, UniProt P02708). As to the kind of experiment: SPR binding affinity (RU) of optimized 5mer/6mer/7mer peptides, Examples 6-7. The note with it: SPR, peptides tested at 10 μM; 6mer-1 Top sequence (top combinations). Summed up: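 600 peptides per series (5mer, 6mer-1, 6mer-2), made from high- or low-frequency amino acid combinations, are screened by SPR at 10 μM; binding is recorded in RU.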
Background: In SPR one partner is held on a chip, and binding of the other changes the refractive index at the surface.

Sequence of acetylcholine receptor (P02708 21-457): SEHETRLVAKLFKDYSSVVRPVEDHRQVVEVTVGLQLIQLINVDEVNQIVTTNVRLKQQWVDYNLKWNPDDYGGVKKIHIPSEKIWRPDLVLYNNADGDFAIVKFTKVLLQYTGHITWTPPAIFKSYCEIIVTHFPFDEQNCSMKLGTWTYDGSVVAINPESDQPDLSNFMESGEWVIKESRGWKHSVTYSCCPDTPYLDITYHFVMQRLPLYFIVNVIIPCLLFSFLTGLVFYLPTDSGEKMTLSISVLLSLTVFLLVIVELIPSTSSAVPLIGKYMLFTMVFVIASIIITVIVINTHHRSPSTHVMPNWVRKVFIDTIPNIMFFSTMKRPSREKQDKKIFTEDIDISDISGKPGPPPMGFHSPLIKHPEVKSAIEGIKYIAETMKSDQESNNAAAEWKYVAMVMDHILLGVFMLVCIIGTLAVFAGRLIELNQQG

Regarding 6mer-1-30 (RRQVRR), the Binding affinity is listed as 154 Ru.
The result for 6mer-1-31 (KRLYCR) reads 121 Ru.
The result for 6mer-1-32 (RKGQCR) reads 121 Ru; that for 6mer-1-33 (KKSYCR), 154 Ru.
Regarding 6mer-1-34 (RKWLYK), the Binding affinity came out at 135 Ru.
The same measure for 6mer-1-35 (RRGRQR): 136 Ru.
In the case of 6mer-1-36 (RKWQQK), the Binding affinity came out at 124 Ru.
The same measure for 6mer-1-37 (KKWVLR): 121 Ru; for 6mer-1-38 (RRQQTK): 126 Ru; for 6mer-1-39 (RKVYQK): 139 Ru.
The result for 6mer-1-40 (KRSQYK) reads 121 Ru.
The same measure for 6mer-1-41 (RKGITK): 122 Ru; for 6mer-1-42 (KKRIQR): 139 Ru.
Take 6mer-1-44 (KRQYCK): the Binding affinity is reported as 148 Ru.
Consider 6mer-1-45 (RKGLTK), for which the Binding affinity is recorded as 145 Ru.
The same measure for 6mer-1-46 (KRLYQR): 142 Ru; for 6mer-1-47 (KRRLLK): 149 Ru.
The result for 6mer-1-48 (RRWVRR) reads 124 Ru; that for 6mer-1-49 (RRWQTR), 149 Ru; that for 6mer-1-50 (KKVRTR), 139 Ru.
The same measure for 6mer-1-51 (RRVLYK): 127 Ru.
In the case of 6mer-1-52 (RRRFLR), the Binding affinity came out at 131 Ru.
The result for 6mer-1-53 (KRVIQR) reads 123 Ru; that for 6mer-1-54 (RRRVCK), 144 Ru.
The same measure for 6mer-1-55 (KRSIYR): 133 Ru.
The same measure for 6mer-1-56 (RRGIQR): 137 Ru; for 6mer-1-57 (RKQYYK): 139 Ru.
For the substance 6mer-1-58 (RKSVTR), the Binding affinity is 126 Ru.
The same measure for 6mer-1-59 (KRLQCK): 145 Ru.
The same measure for 6mer-1-60 (RKSIQK): 139 Ru.
The result for 6mer-1-61 (KRSYCK) reads 121 Ru.
For 6mer-1-62 (RRWFTK), the Binding affinity came out at 133 Ru.
The result for 6mer-1-63 (KKWVSR) reads 148 Ru; that for 6mer-1-64 (RKQFTK), 154 Ru; that for 6mer-1-65 (KKSRRR), 121 Ru.
The same measure for 6mer-1-66 (KKSISR): 147 Ru.
With 6mer-1-67 (RRSYTR), the Binding affinity is reported as 135 Ru.
The same measure for 6mer-1-68 (RKLQLK): 153 Ru; for 6mer-1-69 (RKVRRR): 142 Ru; for 6mer-1-70 (KKLLYR): 139 Ru.
Take 6mer-1-71 (KRWFYK): the Binding affinity turned out to be 121 Ru.
The same measure for 6mer-1-72 (RKVQLK): 139 Ru; for 6mer-1-73 (KKQQQR): 142 Ru.
The result for 6mer-1-74 (KKVRLR) reads 142 Ru.
In the case of 6mer-1-75 (RRQYQK), the Binding affinity turned out to be 139 Ru.
The result for 6mer-1-76 (RRLQLK) reads 126 Ru; that for 6mer-1-77 (KKQLRR), 149 Ru.
The result for 6mer-1-78 (KKRVSK) reads 145 Ru; that for 6mer-1-79 (KRLFCK), 137 Ru; that for 6mer-1-80 (KRVQQR), 133 Ru.
The same measure for 6mer-1-81 (RRWQLR): 148 Ru; for 6mer-1-82 (KKVLYR): 123 Ru.
For 6mer-1-83 (RRSFLR), the Binding affinity is reported as 146 Ru.
The result for 6mer-1-84 (RRGQTK) reads 142 Ru; that for 6mer-1-85 (RKRQCK), 121 Ru; that for 6mer-1-86 (KKWRQK), 142 Ru.
The same measure for 6mer-1-87 (KKQVYK): 139 Ru; for 6mer-1-88 (KRWICK): 121 Ru; for 6mer-1-89 (RKQRCK): 142 Ru.
The same measure for 6mer-1-90 (KKGISK): 125 Ru.
On to 6mer-1-91 (RKQQCK), for which the Binding affinity is 131 Ru.
The result for 6mer-1-92 (RRWRLK) reads 153 Ru; that for 6mer-1-93 (KRWIRR), 136 Ru; that for 6mer-1-94 (RKVQQK), 142 Ru.
The same measure for 6mer-1-95 (KKWQTK): 142 Ru.
In the case of 6mer-1-96 (KRGVRK), the Binding affinity stood at 125 Ru.
The same measure for 6mer-1-97 (KKVYLR): 139 Ru; for 6mer-1-98 (KRLQCR): 154 Ru.
The result for 6mer-1-99 (RKVVYR) reads 136 Ru; that for 6mer-1-100 (RKWISK), 146 Ru.
The same measure for 6mer-1-101 (KRWLYR): 142 Ru; for 6mer-1-102 (RRRYRR): 127 Ru; for 6mer-1-103 (RKRICK): 122 Ru.
As for 6mer-1-104 (KRGFSK), the Binding affinity was determined as 121 Ru.
The result for 6mer-1-105 (KKSISK) reads 141 Ru; that for 6mer-1-106 (KRGQLK), 149 Ru; that for 6mer-1-107 (KKQRSR), 131 Ru.
The same measure for 6mer-1-108 (RRLLLR): 139 Ru; for 6mer-1-109 (KKRYLR): 148 Ru.
The result for 6mer-1-110 (KRQLLK) reads 121 Ru; that for 6mer-1-111 (RKVICR), 144 Ru.
As for 6mer-1-112 (KKWVCR), the Binding affinity came to 148 Ru.
The result for 6mer-1-113 (KRGVQK) reads 148 Ru; that for 6mer-1-114 (RRQITK), 153 Ru; that for 6mer-1-115 (RRSLSR), 133 Ru.
The same measure for 6mer-1-116 (RKVRCK): 139 Ru.
The same measure for 6mer-1-117 (KRLFTR): 142 Ru; for 6mer-1-118 (RKLQLR): 127 Ru; for 6mer-1-119 (KRLQTR): 133 Ru.
On to 6mer-1-120 (RRRYSR), for which the Binding affinity is reported as 124 Ru.
The result for 6mer-1-121 (KRRYTK) reads 148 Ru; that for 6mer-1-122 (KKLIRK), 139 Ru; that for 6mer-1-123 (RRGVQK), 148 Ru.
The same measure for 6mer-1-124 (KRVQQK): 137 Ru; for 6mer-1-125 (KRRLCR): 135 Ru.
Consider 6mer-1-126 (KKWIQR), for which the Binding affinity is 148 Ru.
The same measure for 6mer-1-127 (KRVIYR): 147 Ru; for 6mer-1-128 (RKQFYR): 126 Ru.
The same measure for 6mer-1-129 (RRRQSK): 121 Ru; for 6mer-1-130 (RKQVLR): 142 Ru; for 6mer-1-131 (KRGIQR): 142 Ru.
The result for 6mer-1-132 (RRQVYR) reads 153 Ru; that for 6mer-1-133 (RKRFLR), 154 Ru; that for 6mer-1-134 (KKSIYR), 128 Ru.
In the case of 6mer-1-135 (KRQVSR), the Binding affinity turned out to be 123 Ru.
The same measure for 6mer-1-136 (RRWLYK): 148 Ru; for 6mer-1-137 (RRLFRR): 121 Ru.
The same measure for 6mer-1-138 (RKVVTR): 124 Ru.
The same measure for 6mer-1-139 (KRRFLR): 122 Ru; for 6mer-1-140 (KRQVQR): 148 Ru.
Take 6mer-1-141 (RKLYQK): the Binding affinity worked out at 141 Ru.
The result for 6mer-1-142 (KKVYYK) reads 123 Ru; that for 6mer-1-143 (KRGVLR), 145 Ru; that for 6mer-1-144 (RKRYTR), 148 Ru.
The result for 6mer-1-145 (RKVFQR) reads 141 Ru; that for 6mer-1-146 (KRGRRR), 139 Ru; that for 6mer-1-147 (KKQIQR), 125 Ru.
The same measure for 6mer-1-148 (RKLRCR): 146 Ru; for 6mer-1-149 (RRWVCK): 131 Ru.
Consider 6mer-1-150 (RKRQCR), for which the Binding affinity came out at 142 Ru.
For the substance 6mer-1-151 (KRGVRR), the Binding affinity is 145 Ru.
With 6mer-1-152 (KRVIRR), the Binding affinity came out at 154 Ru.
On to 6mer-1-153 (KKWQQR), for which the Binding affinity came out at 146 Ru.
The result for 6mer-1-154 (KKLYSR) reads 153 Ru; that for 6mer-1-155 (RRVRSR), 127 Ru.
The result for 6mer-1-156 (RRSVTK) reads 154 Ru; that for 6mer-1-157 (KKSLLR), 123 Ru.
The same measure for 6mer-1-158 (RRLIYR): 131 Ru; for 6mer-1-159 (KRLRRK): 139 Ru; for 6mer-1-160 (RRVIQR): 149 Ru.
Regarding 6mer-1-161 (KRRYCK), the Binding affinity was found to be 139 Ru.
As to 6mer-1-162 (KKSLSK), the Binding affinity turned out to be 142 Ru.
The same measure for 6mer-1-163 (KRLQTK): 147 Ru.
